From US20170267768A1 (University of California, published 2017)

Tests used:
[1] = molecular target: T1, human EphA2 on OVCAR-3 and U-251 cells (human, UniProt P29317 24-976); test: CLIA: scFv-decorated fluorescent NTA(Ni) liposomes on OVCAR-3 and U-251 cells, FACS
T1 construct: whole, on cells; also called EphA2 receptors
Method: To test the anti-EphA2 activity of these variant scFvs, the binding and internalization of liposomes externally decorated with these Abs was assayed on cell lines expressing EphA2. A rapid high-throughput Chelated Ligand-induced Internalization Assay (CLIA) (Nielsen et al., BMC immunology, 2006, 7:24) was used to screen anti-EphA2-scFv-targeted liposomes for binding and internalization assessment. Two cell lines that express high levels of EphA2 receptors, OVCAR-3 and U-251, were tested, as well as a murine EphA2-expressing mouse cell line, CT-26 (to test whether cross-reactivity to murine EphA2 was retained by the engineered scFvs). Via nickel-binding by each scFv's c-terminal His6 tag, the scFvs were bound to fluorescently labeled liposomes comprising an NTA(Ni) conjugated lipid (Dil5-NTA liposomes).
Dil5-NTA liposomes were prepared as follows. The NTA conjugated lipid, DOD-Tri-NTA, was synthesized as described in Huang et al., Bioconjugate chemistry, 2006, vol. 17, p. 1592-1600. […] The concentration of liposomal phospholipid was then determined after acid digestion using spectrophotometric phosphomolybdate method.

[2] = molecular target: T2, murine EphA2 on CT-26 cells (mouse, UniProt Q03145 26-977); test: CLIA: scFv-decorated fluorescent NTA(Ni) liposomes on CT-26 cells, FACS
T2 construct: whole, on cells
Method: The concentration of liposomal phospholipid was then determined after acid digestion using spectrophotometric phosphomolybdate method. Prior to incubation with cells the liposomes were diluted to 0.4 mM phospholipid in Hank's Balanced Salt Solution (HBSS), and NiSO₄ was added to 0.1 mM. The hexahistidine scFvs were diluted into cell culture medium (see below) to the concentration of 25 μg/mL of scFv and mixed with equal volume of the liposome solution (“fluorescent NTA-liposome/scFv mixture”).
By measuring fluorescence of the cells prior to and after incubation/wash with imidazole, which disrupts His6/Ni complexes and thereby releases and removes external (but not internalized) histidine-tagged scFv, the percentage of Ab internalized is quantitated. The test cells (human cancer cell lines OVCAR-3 and U-251 and the murine cancer cell line CT-26) were grown in the adherent state in […] cell culture medium supplemented with 10% FBS, 1× penicillin/streptomycin, and L-glutamine, to 90% confluence and harvested using 0.25% trypsin-EDTA. […] The relative amounts of cell-associated liposomes were evaluated by FACS (Cy5 fluorescence channel). The “binding” amount included both cell surface-bound and internalized liposomes and was proportional to cell fluorescence without imidazole wash. […]

T2 sequence (Q03145 26-977): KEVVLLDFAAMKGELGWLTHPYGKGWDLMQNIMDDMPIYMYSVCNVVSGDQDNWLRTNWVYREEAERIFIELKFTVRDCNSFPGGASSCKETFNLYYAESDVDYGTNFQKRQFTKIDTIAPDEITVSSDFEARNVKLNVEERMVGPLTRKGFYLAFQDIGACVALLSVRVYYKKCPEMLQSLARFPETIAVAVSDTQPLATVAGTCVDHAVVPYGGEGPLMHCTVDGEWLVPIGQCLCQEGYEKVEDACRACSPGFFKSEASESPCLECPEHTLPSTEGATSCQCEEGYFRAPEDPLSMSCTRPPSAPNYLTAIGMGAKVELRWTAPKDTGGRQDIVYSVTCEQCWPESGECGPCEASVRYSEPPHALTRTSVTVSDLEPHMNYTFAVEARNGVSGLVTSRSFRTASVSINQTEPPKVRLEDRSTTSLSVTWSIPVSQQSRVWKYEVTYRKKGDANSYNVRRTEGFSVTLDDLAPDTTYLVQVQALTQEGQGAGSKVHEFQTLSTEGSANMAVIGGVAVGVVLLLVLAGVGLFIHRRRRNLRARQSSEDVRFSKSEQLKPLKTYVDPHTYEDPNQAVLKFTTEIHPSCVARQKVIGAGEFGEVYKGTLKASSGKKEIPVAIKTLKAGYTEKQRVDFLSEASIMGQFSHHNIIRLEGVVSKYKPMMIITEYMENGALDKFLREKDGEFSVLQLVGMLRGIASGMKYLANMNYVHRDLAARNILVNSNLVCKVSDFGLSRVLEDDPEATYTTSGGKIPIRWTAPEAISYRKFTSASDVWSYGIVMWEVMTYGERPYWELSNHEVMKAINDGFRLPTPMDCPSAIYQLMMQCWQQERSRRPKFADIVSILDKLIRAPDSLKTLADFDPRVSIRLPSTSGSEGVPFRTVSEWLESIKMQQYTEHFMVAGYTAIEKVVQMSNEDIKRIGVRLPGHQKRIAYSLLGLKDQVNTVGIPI
T1 sequence (P29317 24-976): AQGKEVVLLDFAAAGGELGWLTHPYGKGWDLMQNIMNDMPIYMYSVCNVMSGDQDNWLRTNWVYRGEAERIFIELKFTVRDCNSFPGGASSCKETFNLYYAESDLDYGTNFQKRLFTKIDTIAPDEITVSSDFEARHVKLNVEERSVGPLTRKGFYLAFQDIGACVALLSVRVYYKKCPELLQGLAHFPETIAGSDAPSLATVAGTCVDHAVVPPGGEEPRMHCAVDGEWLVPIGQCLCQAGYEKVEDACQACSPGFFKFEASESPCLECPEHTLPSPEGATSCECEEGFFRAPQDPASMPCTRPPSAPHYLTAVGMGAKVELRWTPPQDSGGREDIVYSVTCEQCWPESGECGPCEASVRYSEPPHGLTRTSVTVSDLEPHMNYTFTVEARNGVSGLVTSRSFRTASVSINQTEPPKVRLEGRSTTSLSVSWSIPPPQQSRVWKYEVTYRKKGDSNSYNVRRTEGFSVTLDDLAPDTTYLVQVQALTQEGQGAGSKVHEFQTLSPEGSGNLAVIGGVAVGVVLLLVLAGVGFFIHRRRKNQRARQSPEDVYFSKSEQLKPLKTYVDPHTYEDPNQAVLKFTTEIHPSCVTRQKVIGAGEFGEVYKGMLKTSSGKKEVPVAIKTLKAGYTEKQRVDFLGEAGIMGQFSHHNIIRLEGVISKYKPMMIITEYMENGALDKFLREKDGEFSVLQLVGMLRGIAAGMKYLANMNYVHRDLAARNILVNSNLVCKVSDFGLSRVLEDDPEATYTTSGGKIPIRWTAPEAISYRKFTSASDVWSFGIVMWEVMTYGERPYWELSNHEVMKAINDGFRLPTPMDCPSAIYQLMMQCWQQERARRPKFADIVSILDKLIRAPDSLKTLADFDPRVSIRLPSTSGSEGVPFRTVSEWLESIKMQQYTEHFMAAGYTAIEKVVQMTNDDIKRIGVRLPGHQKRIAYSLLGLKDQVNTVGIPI

B1: scFv TS1 (scFv)
scFv: QVQLVQSGGGLVQPGGSLRLSCAASGFTFSSYAMHWVRQAPGKGLEWVAVISYDGSNKYYADSVKGRFTISRDNSKNTLYLQMNSLRAEDTAVYYCARASVGATGPFDIWGQGTLVTVSSASTGGGGSGGGGSGGGGSGGGGSSSELTQPPSVSVAPGQTVTITCQGDSLRSYYASWYQQKPGTAPKLLIYGENNRPSGVPDRFSGSSSGTSASLTITGAQAEDEADYYCNSRDSSGTHLTVFGGGTKLTVLG
- binding result [1]: binds
- binding result [2]: binds
